Experimental data taken from publication PMC5639694 (Journal of medicinal chemistry, 2017).
Square brackets hold non-standard residues; d marks the D form. Dap = NC[C@H](N)C(=O)O

How the values were obtained:
[1] = target: mouse melanocortin 5 receptor (mouse) (UniProt P41149)
mMC4R [2] = target: T1, mMC4R (Mus musculus, UniProt P56450); details: AGRP/NDP-MSH chimeric ligands; cited from earlier work
[3] = target: mouse melanocortin 1 receptor (mouse) (UniProt Q01727)
[4] = target: mouse melanocortin 4 receptor (mouse) (UniProt P56450)
Sequence of mouse melanocortin 4 receptor (mouse) (P56450 whole entry): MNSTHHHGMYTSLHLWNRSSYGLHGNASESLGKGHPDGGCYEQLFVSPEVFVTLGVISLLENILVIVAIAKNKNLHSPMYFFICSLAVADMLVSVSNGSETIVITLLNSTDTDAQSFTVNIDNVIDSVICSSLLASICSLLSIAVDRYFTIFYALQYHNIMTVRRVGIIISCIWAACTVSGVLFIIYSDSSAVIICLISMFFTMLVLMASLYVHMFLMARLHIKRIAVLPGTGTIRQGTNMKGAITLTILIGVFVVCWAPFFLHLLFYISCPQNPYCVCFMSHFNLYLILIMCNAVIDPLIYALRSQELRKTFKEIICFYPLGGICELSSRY

mMC5R = mMC5R (Mus musculus, UniProt P41149); details: read-out: mMC5R EC50; agonist; previously reported values; cited from earlier work
Sequence of mMC5R (P41149 whole entry): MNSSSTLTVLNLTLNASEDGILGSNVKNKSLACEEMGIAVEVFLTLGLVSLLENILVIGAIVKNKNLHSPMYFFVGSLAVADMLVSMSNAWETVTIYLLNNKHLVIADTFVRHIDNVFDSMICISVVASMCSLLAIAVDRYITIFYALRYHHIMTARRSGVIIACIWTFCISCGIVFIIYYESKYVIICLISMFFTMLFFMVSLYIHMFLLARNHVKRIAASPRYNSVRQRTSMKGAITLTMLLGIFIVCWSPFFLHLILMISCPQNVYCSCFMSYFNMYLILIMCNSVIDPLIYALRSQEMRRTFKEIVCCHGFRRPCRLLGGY

mMC4R [5] = target: T1, mMC4R; details: read-out: mMC4R EC50; agonist; previously reported values; cited from earlier work
[6] = target: mouse melanocortin 3 receptor (mouse) (UniProt P33033)
Sequence of mouse melanocortin 3 receptor (mouse) (P33033 whole entry): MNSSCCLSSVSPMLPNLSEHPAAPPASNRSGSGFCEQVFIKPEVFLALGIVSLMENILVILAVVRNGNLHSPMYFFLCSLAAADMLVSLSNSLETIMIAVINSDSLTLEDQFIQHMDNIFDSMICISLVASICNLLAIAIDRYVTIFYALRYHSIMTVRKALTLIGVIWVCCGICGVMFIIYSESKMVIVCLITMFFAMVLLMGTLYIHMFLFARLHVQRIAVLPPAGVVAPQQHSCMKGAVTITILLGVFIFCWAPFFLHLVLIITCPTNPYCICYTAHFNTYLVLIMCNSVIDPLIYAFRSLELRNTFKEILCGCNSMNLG

Sequence of mouse melanocortin 1 receptor (mouse) (Q01727 whole entry): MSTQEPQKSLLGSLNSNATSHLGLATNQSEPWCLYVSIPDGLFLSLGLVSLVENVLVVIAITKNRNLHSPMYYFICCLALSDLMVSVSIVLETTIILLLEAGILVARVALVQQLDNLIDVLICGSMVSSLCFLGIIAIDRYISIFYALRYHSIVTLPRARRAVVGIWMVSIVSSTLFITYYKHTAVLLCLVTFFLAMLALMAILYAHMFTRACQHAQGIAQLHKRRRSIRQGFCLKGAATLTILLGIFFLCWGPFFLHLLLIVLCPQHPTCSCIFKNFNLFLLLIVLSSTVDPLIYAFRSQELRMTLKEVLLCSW
Sequence of mouse melanocortin 5 receptor (mouse) (P41149 whole entry): as the sequence (P41149 whole entry) above
T1 sequence (P56450 whole entry): as the sequence (P56450 whole entry) above

Row | agonist EC50 (cAMP AlphaScreen, HEK293 cells stably expressing the receptor) [1] [nM] | agonist EC50 (cAMP AlphaScreen, HEK293 cells stably expressing the receptor) [3] [nM] | agonist EC50 (cAMP AlphaScreen, HEK293 cells stably expressing the receptor) [4] [nM] | Molecule | further results
1 | 46 |  |  | cyclo(P[dF]RW[Dap]AF[dP]) | 
2 |  |  |  | Tyr-c[Asp-His-DPhe-Arg-Trp-Asn-Ala-Phe-Dap]-Tyr-NH2 | selectivity for the mMC4R over the mMC3R (reported) (mMC4R [2]): 5 fold
3 | 330 | 460 | 950 | cyclo(PH[dF]RW[Dap][dP]) | 
4 |  |  |  | Tyr-c[Cys-His-DPhe-Arg-Trp-Asn-Ala-Phe-Cys]-Tyr-NH2 | selectivity for the mMC4R over the mMC3R (reported) (mMC4R [2]): 7 fold
5 |  | 1.1 | 1.6 | cyclo(PH[dF]RW[Dap]A[dP]) | 
6 |  |  |  | CC(=O)N[C@@H](Cc1cnc[nH]1)C(=O)N[C@H](Cc1ccccc1)C(=O)N[C@@H](CCCN=C(N)N)C(=O)N[C@@H](Cc1c[nH]c2ccccc12)C(N)=O [HfRW, Ac-His-DPhe-Arg-Trp-NH2] | EC50 (mMC5R): 10 ± 3 nM; EC50 (mMC4R [5]): 14 ± 2 nM
7 | 48 |  | 150 | cyclo(P[dF]RW[Dap]A[dP]) | 
8 | 18 | 24 |  | cyclo(PH[dF]RW[Dap]AF[dP]) | agonist EC50 (cAMP AlphaScreen, HEK293 cells stably expressing the receptor) [6]: 260 nM
9 |  |  | 420 | cyclo(P[dF]RWNA[dP]) (SMILES C[C@@H]1NC(=O)[C@H](CC(N)=O)NC(=O)[C@H](Cc2c[nH]c3ccccc23)NC(=O)[C@H](CCCNC(=N)N)NC(=O)[C@@H](Cc2ccccc2)NC(=O)[C@@H]2CCCN2C(=O)[C@H]2CCCN2C1=O) [c[Pro-DPhe-Arg-Trp-Asn-Ala-DPro]] | 
10 | 16.8 |  | 170 | cyclo(PH[dF]RWN[dP]) [c[Pro-His-DPhe-Arg-Trp-Asn-DPro]] | 
11 |  | 1800 |  | cyclo(P[dF]RW[dP]) (SMILES N=C(N)NCCC[C@@H]1NC(=O)[C@@H](Cc2ccccc2)NC(=O)[C@@H]2CCCN2C(=O)[C@H]2CCCN2C(=O)[C@H](Cc2c[nH]c3ccccc23)NC1=O) [c[Pro-DPhe-Arg-Trp-DPro]] | 
12 | 0.45 | 0.35 | 1.4 | cyclo(PH[dF]RWNAF[dP]) (SMILES C[C@@H]1NC(=O)[C@H](CC(N)=O)NC(=O)[C@H](Cc2c[nH]c3ccccc23)NC(=O)[C@H](CCCNC(=N)N)NC(=O)[C@@H](Cc2ccccc2)NC(=O)[C@H](Cc2c[nH]cn2)NC(=O)[C@@H]2CCCN2C(=O)[C@H]2CCCN2C(=O)[C@H](Cc2ccccc2)NC1=O) [c[Pro-His-DPhe-Arg-Trp-Asn-Ala-Phe-DPro]] | agonist EC50 (cAMP AlphaScreen, HEK293 cells stably expressing the receptor) [6]: 32 nM
13 | 2.1 | 12 | 29 | cyclo(PH[dF]RWNA[dP]) (SMILES C[C@@H]1NC(=O)[C@H](CC(N)=O)NC(=O)[C@H](Cc2c[nH]c3ccccc23)NC(=O)[C@H](CCCNC(=N)N)NC(=O)[C@@H](Cc2ccccc2)NC(=O)[C@H](Cc2c[nH]cn2)NC(=O)[C@@H]2CCCN2C(=O)[C@H]2CCCN2C1=O) [c[Pro-His-DPhe-Arg-Trp-Asn-Ala-DPro]] | 
